The values that follow come from PMC6398608 (Nature medicine, 2018).

Test [1] concerns the target IL-2 receptor beta/gamma (Homo sapiens) (UniProt P14784). To be noted: cited from earlier work.
Test [2] deals with human interleukin-2 (recombinant IL-2, Humanzyme) (human, UniProt P60568). The test is described as follows: SPR. For orientation: In SPR one partner is held on a chip, and binding of the other changes the refractive index at the surface.
The target of test [3] is human IL-2 crystallised with the F5111 Fab (human, UniProt P60568). The test is described as follows: crystal structure.
human IL-2 crystallised with the F5111 Fab, sequence (P60568 21-153): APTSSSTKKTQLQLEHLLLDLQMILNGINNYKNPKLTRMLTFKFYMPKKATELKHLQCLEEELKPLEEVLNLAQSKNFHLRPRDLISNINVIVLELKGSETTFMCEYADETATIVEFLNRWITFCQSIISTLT

human interleukin-2 (recombinant IL-2, Humanzyme), sequence (P60568 21-153): as above
IL-2 receptor beta/gamma (Homo sapiens), sequence (P14784 27-240, chain 1 of 2): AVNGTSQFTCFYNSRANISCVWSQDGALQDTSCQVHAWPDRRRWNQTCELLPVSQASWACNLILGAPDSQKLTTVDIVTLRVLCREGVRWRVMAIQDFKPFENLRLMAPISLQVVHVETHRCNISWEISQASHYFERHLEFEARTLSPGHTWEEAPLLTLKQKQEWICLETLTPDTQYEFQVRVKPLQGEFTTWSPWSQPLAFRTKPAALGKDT
IL-2 receptor beta/gamma (Homo sapiens), sequence (P31785 23-262, chain 2 of 2, further chain): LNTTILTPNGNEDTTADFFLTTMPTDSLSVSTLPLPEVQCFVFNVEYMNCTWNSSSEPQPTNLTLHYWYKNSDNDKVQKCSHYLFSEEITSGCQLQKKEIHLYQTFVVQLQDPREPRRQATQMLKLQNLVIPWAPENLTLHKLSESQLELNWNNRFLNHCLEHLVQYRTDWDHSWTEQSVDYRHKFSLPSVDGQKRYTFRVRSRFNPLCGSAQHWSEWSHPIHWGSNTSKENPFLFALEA

Broadly, the Kd is a measure of binding affinity in units of concentration. Take IL-2 (from UniProt P60568): the Kd in test [1] is 1 nM.

B1: F5111, fully human anti-human IL-2 IgG (antibody, V domains shown)
VH: QLQLQESGPGLVKPSQTLSLTCTVSGGSISSGGYYWSWIRQHPGKGLEWIGYIYYSGSTYYNPSLKSRVTISVDTSKNQFSLKLSSVTAADTAVYYCARTPTVTGDWFDPWGRGTLVTVSS
VL: NFMLTQPHSVSESPGKTVTISCTRSSGSIASNYVQWYQQRPGSSPTTVIYEDNQRPSGVPDRFSGSIDSSSNSASLTISGLKTEDEADYYCQSYDSSNVVFGGGTKLTVL
Regarding B1, the binding result in test [2] is on record as “binds”.

B2: F5111 Fab (Fab, V domains shown)
VH: QLQLQESGPGLVKPSQTLSLTCTVSGGSISSGGYYWSWIRQHPGKGLEWIGYIYYSGSTYYNPSLKSRVTISVDTSKNQFSLKLSSVTAADTAVYYCARTPTVTGDWFDPWGRGTLVTVSS
VL: NFMLTQPHSVSESPGKTVTISCTRSSGSIASNYVQWYQQRPGSSPTTVIYEDNQRPSGVPDRFSGSIDSSSNSASLTISGLKTEDEADYYCQSYDSSNVVFGGGTKLTVL
In the case of B2, the binding result in test [3] is “binds”.
